Patent publication US12637662B2, “Cells, islets, and organoids that evade immune detection and autoimmunity, methods of production and use thereof” (SALK INSTITUTE FOR BIOLOGICAL STUDIES, priority 2018, dated 2026)

How the values were obtained:
HILO transcriptome = assay: Bulk RNA-Seq transcriptional changes in HILOs; type: cell-based, human; details: WNT4 100 ng/ml for days 26-33
Protocol: Total RNA was isolated from cell pellets treated with RNAlater (Invitrogen) using the RNeasy micro kit (Qiagen) and treated with DNaseI (Qiagen) for 30 minutes at room temperature. Sequencing libraries were prepared from 100-500 ng total RNA using the TruSeq RNA Sample Preparation Kit v2 (Illumina) according to the manufacturer's protocol. Briefly, mRNA was purified, fragmented, and used for first- and second-strand cDNA synthesis followed by adenylation of 3′ ends. Samples were ligated to unique adapters and PCR amplified. Libraries were then validated using the 2100 BioAnalyzer (Agilent), normalized and pooled for sequencing.
RNA-Seq libraries prepared from 3 biological replicates for each experimental condition were sequenced on the Illumina HiSeq 2500 using bar-coded multiplexing and a 100 bp read length. […] This yielded a median of 29.9M usable reads per sample. Short read sequences were mapped to a UCSC hg19 reference sequence using the RNA-Seq aligner STAR (A. Dobin et al., 2013, Bioinformatics, 29:15-21). […] Transcript expression was calculated as gene-level relative abundance in fragments per kilobase of exon model per million (fpkm) mapped fragments and employed correction for transcript abundance bias (A. Roberts et al., 2011, Bioinformatics, 27:2325-2329). […] Scale of heatmaps was determined by Z-score (FIG. 2A, FIG. 3D and FIG. 3G).

[1] = tested on: human iPSC derived cells (islet-like organoids, MCS, HILOs); assay: Glucose-stimulated insulin/c-peptide secretion assay (GSIS, ELISA); type: cell-based
Protocol: Insulin release from intact islets was monitored using batch incubation methods as reported by E. Yoshihara et al., 2016, Cell metabolism, 23:622-634. Briefly, overnight-cultured, isolated pancreatic islets (RPMI-1640 medium supplemented with 10% (v/v) fetal bovine serum and 1% (v/v) Antibiotic-Antimycotic (Gibco)) were pre-cultured at 37° C. for 30 minutes in Krebs-Ringer bicarbonate buffer (KRBB) containing 129.4 mM NaCl, 3.7 mM KCl, 2.7 mM CaCl2), 1.3 mM KH2PO4, 1.3 mM MgSO4, 24.8 mM NaHCO3 (equilibrated with 5% CO2, 95% O2, pH 7.4), 10 mM HEPES and 0.2% (v/v) BSA (fraction V, Sigma) (KRBH) with 3 mM glucose). […] After 30 minutes, the islets were pelleted by centrifugation and secreted insulin levels were determined in the medium by Enzyme Linked Immunosorbent Assay (ELISA), (Rat/mouse Insulin ELISA KIT (Millipore) and Human Insulin ELISA KIT or ultrasensitive human c-peptide ELISA Kit (Millipore) for mouse and human islets, respectively). […] After 30 minutes, the cells were pelleted by centrifugation and c-peptide levels were determined in the supernatant medium using the human c-peptide ELISA KIT (Millipore). […]
Insulin release from intact islets was monitored using batch incubation methods (Yoshihara et al., 2010, Nat. Commun. 1:127). […] After 30 min, the cells were pelleted by centrifugation and c-peptide levels were determined by human c-peptide ELISA KIT (Millipore).

B1: WNT4: recombinant human Wnt4 protein (R&D Systems), non-canonical WNT maturation factor (protein, UniProt P56705 23-351, looked up)
Protein Wnt-4: SNWLYLAKLSSVGSISEEETCEKLKGLIQRQVQMCKRNLEVMDSVRRGAQLAIEECQYQFRNRRWNCSTLDSLPVFGKVVTQGTREAAFVYAISSAGVAFAVTRACSSGELEKCGCDRTVHGVSPQGFQWSGCSDNIAYGVAFSQSFVDVRERSKGASSSRALMNLHNNEAGRKAILTHMRVECKCHGVSGSCEVKTCWRAVPPFRQVGHALKEKFDGATEVEPRRVGSSRALVPRNAQFKPHTDEDLVYLEPSPDFCEQDMRSGVLGTRGRTCNKTSKAIDGCELLCCGRGFHTAQVELAERCSCKFHWCCFVKCRQCQRLVELHTCR
B1 was tested, and the “number of genes with decreased expression” value (HILO transcriptome) was 1354 genes, the “number of genes with increased expression” value (HILO transcriptome) was 1581 genes and the “glucose-stimulated insulin (c-peptide) secretion in vitro” value ([1]; 3 mM vs 20 mM glucose) was “showed functional maturation”. For the same molecule, the “pseudo-islet formation and GSIS of commercially-available hiPSC-derived β like cells” value ([1]; 3D differentiation medium containing WNT4) was “promoted pseudo-islet formation and GSIS functionality”.
